According to publication PMC4007762:

How the values were obtained:
Details in all cases: reference: wild-type YFP-p120-1A; sites Y335
[1] = molecular target: cortactin (UniProt Q14247); assay: anti-YFP immunoprecipitation, cortactin blot
[2] = molecular target: E-cadherin (UniProt P12830); assay: anti-YFP immunoprecipitation, E-cadherin blot
[3] = molecular target: VAV2 (endogenous) (UniProt P52735); assay: anti-YFP immunoprecipitation, VAV2 blot

Q: Which results are given for “p120-1A (transfected YFP- or HA-tagged) (from UniProt P30999) Y335F”?
A: binding against the reference [1]: weaker; binding against the reference [2]: stronger; binding against the reference [3]: weaker
